Measured values reported in publication doi:10.1101/2021.12.16.472998 (bioRxiv, 2021).

Assays:
[1] = target: recombinant hFc-LY6S-iso1 fusion protein (Homo sapiens, UniProt P0DTL4); test: immunoblot
[2] = target: native LY6S-iso1 protein (hLY6S-E, with its endogenous signal peptide) expressed in HEK293 cells (Homo sapiens, UniProt P0DTL4); test: immunostaining of cells or tissue
[3] = target: endogenous LY6S-iso1 protein in human spleen cells (Homo sapiens, UniProt P0DTL4); test: immunostaining of cells or tissue
endogenous LY6S-iso1 protein in human spleen cells, sequence (P0DTL4 27-134): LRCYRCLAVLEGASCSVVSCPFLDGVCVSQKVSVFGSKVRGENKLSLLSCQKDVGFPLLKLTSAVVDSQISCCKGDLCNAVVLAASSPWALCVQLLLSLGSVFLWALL

native LY6S-iso1 protein (hLY6S-E, with its endogenous signal peptide) expressed in HEK293 cells, sequence (P0DTL4 27-134): as above
recombinant hFc-LY6S-iso1 fusion protein, sequence (P0DTL4 27-134): as above

binding result [1]: binds
binding result [2]: binds
binding result [3]: binds
B1: anti-LY6S-iso1 monoclonal antibody 5E12 (antibody, V domains shown)
VH: QVQLKQSGAELVRPGASVKLSCKAWGYTFTGYEMHWVKQTPVHGLEWIGAIYPGSGGTAYNQKFKGQATLTVDKSSNTAYIELSSLTSEDSAVYYCTVYDFWGQGTTLTVSS
VL: DVVMTQTPLSLPVGLGDHASISCRSSQSLLKSDGNTYLHWYLQKSGQSPKLLIYKVSNRFSGVPDRFSGSGSGTDFTLKISRVEAEDLGVYFCSQSTHVPYTFGGGTKLEIK
